The text below walks through data of US20230105982A1 (Merck Sharp & Dohme, published 2023).

Holding throughout (assay): cell-based or functional assay
The target of one assay is human glucagon receptor (human, UniProt P47871 26-477).
A further assay deals with human GLP-1 receptor (human, UniProt P43220 24-463).
Assay [1] deals with human Glucagon receptor (GCGR) (human, UniProt P47871 26-477).
For assay [2], the target named is human GLP-1 receptor (GLP1R) (human, UniProt P43220 24-463).

Starred links: 1 amine or outer side, 2 acyl side, 3 side chain; linkers in the order of their positions; H or OH if unused. Non-standard residues stand in square brackets, D forms with d. Groups on a side chain read outwards from the residue. No end group written: not given here. *: point of attachment. C16 = C16 fatty acyl group, not further defined; C18 diacid = O=C(O)CCCCCCCCCCCCCCCCC(=O)*; Lys(N3) = [N-]=[N+]=NCCCC[C@H](N)C(=O)O; γGlu = O=C(O)[C@H](CCC(=O)[*:2])N[*:1]; Met(O2) = CS(=O)(=O)CC[C@H](N)C(=O)O; Palmitoyl = CCCCCCCCCCCCCCCC(=O)*; AEEA = NCCOCCOCC(=O)O; Aib = CC(C)(N)C(=O)O Bounds are passed on as bounds.

B1: PEP76 (control molecule of Table 7) (peptide)
peptide: H[dS]QGTFTSDK([γGlu-γGlu-Palmitoyl])SKYLDERAAQDFVQWLLDT-NH2
modifications: N-terminus assumed
SMILES: CCCCCCCCCCCCCCCC(=O)N[C@@H](CCC(=O)N[C@@H](CCC(=O)NCCCC[C@H](NC(=O)[C@H](CC(=O)O)NC(=O)[C@H](CO)NC(=O)[C@@H](NC(=O)[C@H](Cc1ccccc1)NC(=O)[C@@H](NC(=O)CNC(=O)[C@H](CCC(N)=O)NC(=O)[C@@H](CO)NC(=O)[C@@H](N)Cc1c[nH]cn1)[C@@H](C)O)[C@@H](C)O)C(=O)N[C@@H](CO)C(=O)N[C@@H](CCCCN)C(=O)N[C@@H](Cc1ccc(O)cc1)C(=O)N[C@@H](CC(C)C)C(=O)N[C@@H](CC(=O)O)C(=O)N[C@@H](CCC(=O)O)C(=O)N[C@@H](CCCNC(=N)N)C(=O)N[C@@H](C)C(=O)N[C@@H](C)C(=O)N[C@@H](CCC(N)=O)C(=O)N[C@@H](CC(=O)O)C(=O)N[C@@H](Cc1ccccc1)C(=O)N[C@H](C(=O)N[C@@H](CCC(N)=O)C(=O)N[C@@H](Cc1c[nH]c2ccccc12)C(=O)N[C@@H](CC(C)C)C(=O)N[C@@H](CC(C)C)C(=O)N[C@@H](CC(=O)O)C(=O)N[C@H](C(N)=O)[C@@H](C)O)C(C)C)C(=O)O)C(=O)O
Turning to B1, the entries for the “Incretin Receptor Assay (cAMP) EC50” value with human glucagon receptor and with human GLP-1 receptor were 0.009 nM and 0.007 nM, respectively.

Turning to H[dS]QGTFTSDK([γGlu-γGlu-C16])SKYLDERAAQ[Lys(N3)]FVQWLLDT-NH2 [PEP1], the “hGCGR_EC50 (nM), cAMP assay” value in assay [1] amounted to 0.01 nM.

For the molecule H[Aib]QGTFTSDYSKYLDARAAK([AEEA-AEEA-γGlu-C20‑OH])DFV[Lys(N3)]WL[Met(O2)]DT-NH2 [PEP31], the “hGLP1R EC50 (nM), cAMP assay” value in assay [2] stood at 1.38 nM. For the same molecule, in assay [1], the “hGCGR_EC50 (nM), cAMP assay” value was 4.24 nM.

For the molecule HXEGTFTSDKSKYLDERAAQDFVXWLLDT (D-serine at 2; Lys 10 conjugated to γEγE-C16; Nle(εN3) at 24; C-terminal amide) [PEP75], the “hGCGR_EC50 (nM), cAMP assay” value in assay [1] is greater than 5 nM.

For H[Aib]QGTFTSDYSKYLDARAAK([AEEA-AEEA-γGlu-C18 diacid])DFV[Lys(N3)]WL[Met(O2)]DT-NH2 [PEP30], the “hGLP1R EC50 (nM), cAMP assay” value in assay [2] came out at 0.5 nM. Also, the “hGCGR_EC50 (nM), cAMP assay” value in assay [1] is 2.27 nM.
